Source: paper doi:10.1101/2023.06.19.545293 (2023)

Tests used:
[1] = target: T1, ZnF domain of A. thaliana SPL5 (Ser60-Leu127) (A. thaliana, UniProt Q9S758 60-127); assay: ITC; 25 °C, repeat 2
T1 chain: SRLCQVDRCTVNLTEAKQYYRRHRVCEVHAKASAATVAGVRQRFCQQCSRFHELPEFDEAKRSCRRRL

[2] = target: T1, ZnF domain of A. thaliana SPL5 …; assay: ITC; 25 °C, repeat 1

B1: SAP05 (mature, Ala33-Lys135) of Aster Yellows phytoplasma strain Witches Broom (natural protein)
chain: APNEEFVGDMRIVNVNLSNIDILKKHETFKKYFDFTLTGPRYNGNIAEFAMIWKIKNPPLNLLGVFFDDGTRDDEDDKYILEELKQIGNGAKNMYIFWQYEQK
Q: Which results are given for B1?
A: Kd [1]: 388 nM; Kd [2]: 510 nM
